According to the supplement of paper PMC10724198:
± gives the standard deviation of the averaged measurements.

Tested on: Saccharomyces cerevisiae
Experiment: protein stability index of tFT-peptide fusion (C-terminal peptide) (PSI (0-1 scale)); higher = more stable (slower turnover)
Details: temperature: 30 C
Experimental: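 MPS profiling in S. cerevisiae of the yeast C-terminome library: the last 12 aa of each annotated ORF are fused to the C-terminus of a sfGFP-mCherry timer, after a GGGS linker. Cells are FACS-sorted into 8 mCherry/sfGFP bins and deep-sequenced. PSI runs from 0 (unstable) to 1 (stable); wild type and das1Δ backgrounds, two technical replicates each.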

[1] = genetic background: das1 deletion

Sequence | protein stability index [1] | protein stability index (genetic background: wild type)
QLHLVLTLRGGN [RUB1 C-terminal 12 aa] | 0.683 ± 0.011 | 0.74 ± 0.053
QLSRNEESLMKK [COS5 C-terminal 12 aa] | 0.7 ± 0.015 | 0.752 ± 0.059
QMTRNVNNNDFS [YAH1 C-terminal 12 aa] | 0.711 ± 0.028 | 0.664 ± 0.014
QMVRDEGFEKNP [GPM3 C-terminal 12 aa] | 0.68 ± 0.038 | 0.644 ± 0.036
QPDDKTKGILDR [ERV41 C-terminal 12 aa] | 0.7292 ± 0.0051 | 0.682 ± 0.03
QQEQDKKKKSNH [PRE6 C-terminal 12 aa] | 0.709 ± 0.013 | 0.49 ± 0.013
QRDFLLFYNAIM [CDC36 C-terminal 12 aa] | 0.687 ± 0.012 | 0.533 ± 0.075
QSFETVFAGQKP [MET17 C-terminal 12 aa] | 0.7008 ± 0.0036 | 0.702 ± 0.027
QTDNTSATNQLL [YSP2 C-terminal 12 aa] | 0.7 ± 0.0084 | 0.701 ± 0.029
QTINTKPLYIKN [YGR290W C-terminal 12 aa] | 0.686 ± 0.02 | 0.665 ± 0.075
QVGKSQAQAVTL [ANY1 C-terminal 12 aa] | 0.674 ± 0.0092 | 0.7167 ± 0.0057
QVPEEDFPVVNY [DNL4 C-terminal 12 aa] | 0.697 ± 0.009 | 0.718 ± 0.034
RAEVAALAAENK [PFK1 C-terminal 12 aa] | 0.6903 ± 0.0045 | 0.6608 ± 0.0054
RAHITKQKKKGY [SDA1 C-terminal 12 aa] | 0.7317 ± 0.0043 | 0.6636 ± 0.0011
RARLIRKKKTIN [YER085C C-terminal 12 aa] | 0.751 ± 0.022 | 0.202 ± 0.022
RAVTPTGKKGRN [YOR296W C-terminal 12 aa] | 0.675 ± 0.035 | 0.6578 ± 0.0052
RCNVYIIRCIHH [YOL164W-A C-terminal 12 aa] | 0.5183 ± 0.00055 | 0.51 ± 0.037
RCWVQAVFDVPQ [ABP140 C-terminal 12 aa] | 0.725 ± 0.011 | 0.691 ± 0.046
RDHDLKDCGDIF [OSH2 C-terminal 12 aa] | 0.7104 ± 0.0011 | 0.698 ± 0.039
RELFGVGTPQKL [TEA1 C-terminal 12 aa] | 0.7173 ± 0.0037 | 0.728 ± 0.023
RELTDLFGYKLG [SLM4 C-terminal 12 aa] | 0.708 ± 0.015 | 0.677 ± 0.02

Sequence | protein stability index [1] | protein stability index (genetic background: wild type)
RESINEAKLRHT [BDH2 C-terminal 12 aa] | 0.676 ± 0.02 | 0.63 ± 0.011
REWASNTVKKEK [EMC5 C-terminal 12 aa] | 0.698 ± 0.013 | 0.692 ± 0.024
RFRVVLGDSDDE [PSH1 C-terminal 12 aa] | 0.672 ± 0.043 | 0.721 ± 0.075
RGRGALVDSDDE [ELF1 C-terminal 12 aa] | 0.713 ± 0.026 | 0.674 ± 0.046
RGSCDNWKKRQN [YBL044W C-terminal 12 aa] | 0.726 ± 0.021 | 0.482 ± 0.0072
RIPKELTGTVRF [GAT4 C-terminal 12 aa] | 0.705 ± 0.018 | 0.672 ± 0.014
RITRLSSMTYTY [YPS5 C-terminal 12 aa] | 0.711 ± 0.038 | 0.69 ± 0.033
RKQAHELRPKSE [SPO7 C-terminal 12 aa] | 0.77 ± 0.024 | 0.79 ± 0.019
RKSHERPDDVSV [SUR7 C-terminal 12 aa] | 0.692 ± 0.018 | 0.69 ± 0.028
RKSTRSDNPHEA [CBF1 C-terminal 12 aa] | 0.6989 ± 0.0016 | 0.687 ± 0.017
RLDRHFEKKKKV [RDS3 C-terminal 12 aa] | 0.704 ± 0.023 | 0.7 ± 0.021
RLEQGSNGFMFA [NAM8 C-terminal 12 aa] | 0.702 ± 0.026 | 0.699 ± 0.011
RLGASNSSNNDA [SLY1 C-terminal 12 aa] | 0.702 ± 0.022 | 0.68 ± 0.018
RLRKWLSTFVHQ [YNL034W C-terminal 12 aa] | 0.756 ± 0.045 | 0.182 ± 0.017
RMYTRHKTSFPL [YAL042C-A C-terminal 12 aa] | 0.711 ± 0.02 | 0.66427 ± 0.00065
RNSGEKLVAVLK [YNL134C C-terminal 12 aa] | 0.691 ± 0.0088 | 0.6702 ± 0.0052
RNSPSYTGDHKT [YOR072W-A C-terminal 12 aa] | 0.722 ± 0.02 | 0.6928 ± 0.0067
RNWLGFCTKYEL [ATG15 C-terminal 12 aa] | 0.741 ± 0.021 | 0.735 ± 0.047
RPDSTAPSNENQ [PEP1 C-terminal 12 aa] | 0.7262 ± 0.00093 | 0.7245 ± 0.0041
RPFEIASFRLYF [AMS1 C-terminal 12 aa] | 0.703 ± 0.026 | 0.683 ± 0.016
RQYAGCKVNVGK [NUS1 C-terminal 12 aa] | 0.707 ± 0.015 | 0.705 ± 0.051

Sequence | protein stability index [1] | protein stability index (genetic background: wild type)
RRIIESINKSQG [HAT1 C-terminal 12 aa] | 0.659 ± 0.012 | 0.6752 ± 0.0052
RRLEMEIANLQE [SPC34 C-terminal 12 aa] | 0.726 ± 0.036 | 0.706 ± 0.028
RRQSLPKRFPLI [YAR035C-A C-terminal 12 aa] | 0.717 ± 0.014 | 0.697 ± 0.022
RSLLRKSKPLQA [RPM2 C-terminal 12 aa] | 0.675 ± 0.024 | 0.639 ± 0.018
RSPKKKKNYHKR [NUR1 C-terminal 12 aa] | 0.74 ± 0.061 | 0.6729 ± 0.006
RTGSQSPPSSSQ [MED7 C-terminal 12 aa] | 0.707 ± 0.022 | 0.673 ± 0.025
RVPQSRSFGNLR [NUM1 C-terminal 12 aa] | 0.738 ± 0.012 | 0.746 ± 0.038
RVSRMRAKRKYQ [YOR300W C-terminal 12 aa] | 0.712 ± 0.034 | 0.6764 ± 0.0037
RYAHIGGLHQRT [PRR2 C-terminal 12 aa] | 0.709 ± 0.01 | 0.686 ± 0.018
RYIRHLQQNVST [PHO4 C-terminal 12 aa] | 0.688 ± 0.016 | 0.683 ± 0.037
RYIYAYINAQVQ [YHL005C C-terminal 12 aa] | 0.502 ± 0.03 | 0.452 ± 0.0055
SDDDDYDEVANQ [UBC8 C-terminal 12 aa] | 0.689 ± 0.031 | 0.664 ± 0.015
SDLNVLLQIKHS [YNL228W C-terminal 12 aa] | 0.7201 ± 0.00055 | 0.31 ± 0.015
SEEEEEEEWKGF [RRP1 C-terminal 12 aa] | 0.68 ± 0.011 | 0.673 ± 0.033
SEKIYRRSLFKQ [YKL165C-A C-terminal 12 aa] | 0.708 ± 0.03 | 0.686 ± 0.044
SEYRRKQQEKKD [YPI1 C-terminal 12 aa] | 0.722 ± 0.019 | 0.688 ± 0.023
SFGIGSKVFSSM [YHR063W-A C-terminal 12 aa] | 0.711 ± 0.021 | 0.695 ± 0.01
SFTKSRIHLEFT [SPC105 C-terminal 12 aa] | 0.706 ± 0.024 | 0.69832 ± 2.3e-05
SFWPHVAGELEY [INM2 C-terminal 12 aa] | 0.72 ± 0.014 | 0.693 ± 0.04
